Data on one protein can be found in publication PMC3308208, “Disassembly and reassembly of human papillomavirus virus-like particles produces more virion-like antibody reactivity” (Virology Journal, 2012).

The series concerns the molecule itself. Briefly: cryo-EM imaging; post-D/R HPV16 VLPs, undiluted, in vitrified ice on holey carbon films; Tecnai F20 at 120 keV.

B1: HPV16 L1 virus-like particles (VLPs) (natural protein)
chain: MSLWLPSEATVYLPPVPVSKVVSTDEYVARTNIYYHAGTSRLLAVGHPYFPIKKPNNNKILVPKVSGLQYRVFRIHLPDPNKFGFPDTSFYNPDTQRLVWACVGVEVGRGQPLGVGISGHPLLNKLDDTENASAYAANAGVDNRECISMDYKQTQLCLIGCKPPIGEHWGKGSPCTNVAVNPGDCPPLELINTVIQDGDMVDTGFGAMDFTTLQANKSEVPLDICTSICKYPDYIKMVSEPYGDSLFFYLRREQMFVRHLFNRAGAVGENVPDDLYIKGSGSTANLASSNYFPTPSGSMVTSDAQIFNKPYWLQRAQGHNNGICWGNQLFVTVVDTTRSTNMSLCAAISTSETTYKNTNFKEYLRHGEEYDLQFIFQLCKITLTADVMTYIHSMNSTILEDWNFGLQPPPGGTLEDTYRFVTSQAIACQKHTPPAPKEDPLKKYTFWEVNLKEKFSADLDQFPLGRKFLLQAGLKAKPKFTLGKRKATPTTSSTSTTAKRKKRKL
notes: major capsid protein L1 of human papillomavirus type 16, full length, self-assembled into VLPs; The same L1 protein was tested as pre-D/R VLPs (purified only) and as post-D/R VLPs (disassembled and reassembled); The T = 7 count of 360 copies is stated only in the background; also called HPV 16 L1 VLPs; post-D/R VLPs; source: over expressed in yeast, purified VLPs; post-D/R lots after disassembly …
As for B1, the binding result is on record as “binds”.
